{
  "source": "paper PMC13147308",
  "key": {"[1]": {"molecular_target": "SauCas9 WED-PI domain construct, His-tagged (Staphylococcus aureus)", "experiment": "ITC; AcrIIA13b mutants E31K and E39K with SauCas9 and WED-PI (Fig. S7); buffer not told for this experiment"}, "[2]": {"molecular_target": "SauCas9 PI (PAM-interacting) domain, His-tagged (Staphylococcus aureus)", "experiment": "ITC; PBS pH 7.4, 20 °C; AcrIIA13b (500 μM) injected into the target protein (50 μM) in the cell, 25 injections; single-site model"}, "[3]": {"molecular_target": "Staphylococcus aureus Cas9, full length, His-tagged (Staphylococcus aureus) (UniProt J7RUA5)", "experiment": "ITC; PBS pH 7.4, 20 °C; AcrIIA13b (500 μM) injected into the target protein (50 μM) in the cell, 25 injections; single-site model"}, "[4]": {"molecular_target": "Staphylococcus haemolyticus AcrIIA13b, wild type, with C-terminal 6xHis tag (Staphylococcus haemolyticus)", "experiment": "SEC-MALS; Superdex 200 Increase 10/300 GL, 20 mM Tris/HCl pH 8.0, 150 mM NaCl, 20 °C, 0.5 mL/min; SEC profiles and MALS of wild type and mutants; monomer and dimer peaks coexist"}, "[5]": {"molecular_target": "Staphylococcus aureus Cas9, full length, His-tagged (UniProt J7RUA5)", "experiment": "SEC co-migration followed by SDS/PAGE band quantification", "conditions": "fraction eluted around 12 mL in SEC; n = 3; parent: est. 100; read off a plot"}},
  "data": [
    {"substance": "AcrIIA13b E39K mutant (natural protein)", "values": [
      {"measurement": "Kd", "setting": "[1]", "result": 1310, "unit": "nM"}
    ]},
    {"substance": "Staphylococcus haemolyticus AcrIIA13b, wild type, with C-terminal 6xHis tag (natural protein)", "values": [
      {"measurement": "Kd", "setting": "[2]", "result": 970, "unit": "nM"},
      {"measurement": "Kd", "setting": "[3]", "result": 4470, "unit": "nM"},
      {"measurement": "stoichiometry N", "setting": "[4]", "result": 2}
    ]},
    {"substance": "Staphylococcus haemolyticus AcrIIA13b, wild type, with C-terminal 6xHis tag E21K", "values": [
      {"measurement": "percent of parent", "setting": "[5]", "result": 75, "unit": "%"}
    ]},
    {"substance": "Staphylococcus haemolyticus AcrIIA13b, wild type, with C-terminal 6xHis tag E31K", "values": [
      {"measurement": "percent of parent", "setting": "[5]", "result": 13, "unit": "%"}
    ]},
    {"substance": "Staphylococcus haemolyticus AcrIIA13b, wild type, with C-terminal 6xHis tag E39K", "values": [
      {"measurement": "percent of parent", "setting": "[5]", "result": 35, "unit": "%"}
    ]},
    {"substance": "Staphylococcus haemolyticus AcrIIA13b, wild type, with C-terminal 6xHis tag E89W", "values": [
      {"measurement": "percent of parent", "setting": "[5]", "result": 84, "unit": "%"}
    ]},
    {"substance": "Staphylococcus haemolyticus AcrIIA13b, wild type, with C-terminal 6xHis tag E94W", "values": [
      {"measurement": "percent of parent", "setting": "[5]", "result": 87, "unit": "%"}
    ]},
    {"substance": "Staphylococcus haemolyticus AcrIIA13b, wild type, with C-terminal 6xHis tag Q25W", "values": [
      {"measurement": "percent of parent", "setting": "[5]", "result": 46, "unit": "%"}
    ]},
    {"substance": "Staphylococcus haemolyticus AcrIIA13b, wild type, with C-terminal 6xHis tag Q87W", "values": [
      {"measurement": "percent of parent", "setting": "[5]", "result": 75, "unit": "%"}
    ]}
  ]
}
